# Measurements: publication PMC8248988, “A signal capture and proofreading mechanism for the KDEL-receptor explains selectivity and dynamic range in ER retrieval” (eLife, 2021)
# Test system: BIP and PDI, ERP72 and ERP44
# Test: ER chaperone secretion assay, all four chaperones
# Assay type: cell-based, human
# Details: HeLa S3 cells
# Excerpt: Figure 1. ER retrieval signal abundance and affinity are not correlated. (a) Sequence logos for ER resident proteins with C-terminal KDEL retrieval signals and variants thereof calculated using frequency or protein abundance ([Itzhak et al., 2017]; [Itzhak et al., 2016]). (b) Combined cellular concentrations of ER resident proteins with canonical KDEL, RDEL, and HDEL retrieval sequences in HeLa cells and mouse brain. (c) Competition binding assays for [^3H]-TAEHDEL and unlabelled TAEKDEL, TAERDEL, and TAEHDEL to the KDEL receptor. IC50 values for the competing peptides were used to calculate the apparent KDwith the Cheng-Prusoff equation ([Cheng and Prusoff, 1973]). (d) Endogenous KDEL receptor redistribution was measured in COS-7 cells in the absence (-ligand) or presence of K/R/H/A/DDEL (mScarlet-xDEL^sec). TGN46 was used as a Golgi marker. Scale bar is 10 µm. […] The individual data points for the fraction of KDEL receptor fluorescence in the Golgi are plotted on the upper axes with sample sizes and p values. […] Endogenous ER chaperone secretion was measured by western blotting after challenge with different retrieval signals, and plotted as a bar graph showing mean ± SEM (n = 3). […] (a) Distribution of human KDELR1 and (b) KDELR2 was measured in COS-7 cells in the absence (-ligand) or presence of K/R/H/A/DDEL retrieval signals (K/R/H/A/DDEL^sec). […]
substance,measurement,value
"ADEL [pcDNA3.1 hGHss-mScarlet-H. sapiens BiP639-654K651A (ADEL^SEC), secreted mScarlet fusion with human BiP C-terminus, ADEL signal]","effect on ER retention of BIP, PDI, ERP72 and ERP44 (in words)",little effect on ER retention
